Data as given in patent US20080299638A1 (priority 2004, published 2008).
Values joined by “and” are separate entries in the source; they are usually repeats but may differ in a detail not shown here. Equal values may be shown once.

Tests used:
HBsAg = experiment: Suppression of HBsAg secretion in 2.2.15 cells (radioimmunoassay, cpm); type: cell-based, hepatitis B virus; details: for HBsAg IC50: first batch
Experimental: (§1) Grow 200000 cells/ml 2.2.15 cell on 24-well plate, 1 ml per well, incubate for 24 hours under 5% CO2 at 37° C. […] 4 wells per concentration, incubate under 5% CO2 at 37° C., change drug solution every 4 days with the same concentration, retrieve culture medium at day 8, preserve at −20° C. Repeat experiment for 2 batches, test for HBsAg and HBeAg separately. Check cpm value for each wells using γ-counter.
(§2) Calculating drug effectiveness: calculate the mean and standard deviation of cpm from the cell control group and groups with different drug concentration, P/N value and percent suppression, IC50 and SI. • (1)
(§3) [formula] • (2) Calculate IC50 for drug suppression of antigen:
(§4) [formula] • (4) Calculate the cpm differences between HBsAg and HBeAg in different dilutions and control groups by t-test.

HBeAg = experiment: Suppression of HBeAg secretion in 2.2.15 cells (radioimmunoassay, cpm); type: cell-based, hepatitis B virus
Experimental: as §1, §2, §3, §4

[1] = test system: HBV-DNA in supernatant of 2.2.15 cell culture; experiment: HBV-DNA dot blot in supernatant of 2.2.15 cell culture; type: cell-based, hepatitis B virus
Experimental: Extraction of HBV-DNA from 2.2.15 cells supernatant: Grow 200000 cells/ml 2.2.15 cell on 24-well plate, 1 ml per well, add drugs after 24 hours incubation, change drug solution every 4 days with the same concentration, collect supernatant from cell culture after 8 days of incubation counted from the day drugs added into the culture, precipitate with polyethylene glycol, digest with proteinase K, extract with phenol:chloroform:isopentanol, nucleic acid precipitation by absolute ethanol and so on procedures, vacuum dry, re-dissolve in TE buffer as sample.
Dot blot: place dots: take 20 μl sample (contains 25 μg DNA), denature, neutralize, serial dilute 20×SSC buffer to 1:8 dilution on nitrocellulose membrane, oven dry, pre-hybridize, hybridize, wash membrane, radioactive self exposure and so on procedures. Develop X ray film with conventional method. Scan developed film with scanner, measure density with gel-pro software, calculate suppression rate and IC50.

2.2.15 cells = experiment: Arginase toxicity to cells (CPE method, Reed-Muench); type: cell-based, human; details: 8 days drug addition
Experimental: Divide experiment into control group and test groups with different drug concentration. Digest cells, dilute to 200,000 cells/ml, transfer to culture plate, 100 μl per well for 96-well plate, incubate for 24 hours under 5% CO2 at 37° C., ready for experiment when cells grown into monolayer. […] Observe cytopathological changes, 8 days or 4 days under microscope, totally destroyed is 4; 75% destroyed is 3; 50% destroyed is 2, 25% destroyed is 1; no changes is 0. Calculate TC50 and TC0 according to Reed-Muench Method:
A=log>50% drug concentration; B=log<50% drug concentration; C=log times of dilution
Starting from 40 IU/ml and subsequently 20, 10, 5, 2.5 IU/ml, change drug solution every 4 days until 8 days, observe cytopathological changes under microscope, and check for CPE with microscope.

[2] = 2.2.15 cells, 8 days incubation, TC0 concentration and dilutions
[3] = Arginase 1.25 IU/ml, batch 2, day 8
[4] = Arginase 1.25 IU/ml, two batches average line, day 8
[5] = Arginase 2.5 IU/ml, batch 1, day 8
[6] = Arginase 2.5 IU/ml, batch 2, day 8
[7] = Arginase 2.5 IU/ml, two batches average, day 8
[8] = Arginase 5 IU/ml, batch 1, day 8
[9] = Arginase 5 IU/ml, batch 2, day 8
[10] = Arginase 5 IU/ml, two batches average, day 8
[11] = Arginase 10 IU/ml, batch 1, day 8
[12] = Arginase 10 IU/ml, batch 2, day 8
[13] = Arginase 10 IU/ml, two batches average, day 8
[14] = Arginase 20 IU/ml, batch 1, day 8
[15] = Arginase 20 IU/ml, two batches average, day 8
[16] = Arginase 20 IU/ml, two batches average, day 8, listed as pegylated recombinant arginase

B1: Arginase: Pegylated recombinant human arginase (BCT-100); human arginase I with N-terminal six-histidine tag, SEQ ID NO: 3 (protein, listed as Homo sapiens)
chain: MHHHHHHMSAKSRTIGIIGAPFSKGQPRGGVEEGPTVLRKAGLLEKLKEQECDVKDYGDLPFADIPNDSPFQIVKNPRSVGKASEQLAGKVAQVKKNGRISLVLGGDHSLAIGSISGHARVHPDLGVIWVDAHTDINTPLTTTSGNLHGQPVSFLLKELKGKIPDVPGFSWVTPCISAKDIVYIGLRDVDPGEHYILKTLGIKYFSMTEVDRLGIGKVMEETLSYLLGRKKRPIHLSFDVDGLDPSFTPATGTPVVGGLTYREGLYITEEIYKTGLLSGLDIMEVNPSLGKTPEEVTRTVNTAVAITLACFGLAREGNHKPIDYLNPPK
modifications: PEGylated
Suppression of HBsAg secretion (result in words) (HBsAg; [2]): significantly inhibits
HBsAg (CPM) % suppression (HBsAg; [3]): 4.463%
HBsAg (CPM) % suppression (HBsAg; [4]): 4.46%
HBsAg (CPM) % suppression (HBsAg; [5]): 37.18% and 37.1787%
HBsAg (CPM) % suppression (HBsAg; [6]): 2.6073%
HBsAg (CPM) % suppression (HBsAg; [7]): 19.92 ± 24.40%
HBsAg (CPM) % suppression (HBsAg; [8]): 42.29% and 42.2871%
HBsAg (CPM) % suppression (HBsAg; [9]): 1.4739%
HBsAg (CPM) % suppression (HBsAg; [10]): 21.88 ± 28.86%
HBsAg (CPM) % suppression (HBsAg; [11]): 47.97% and 47.9651%
HBsAg (CPM) % suppression (HBsAg; [12]): 6.0761%
HBsAg (CPM) % suppression (HBsAg; [13]): 27.02 ± 29.62%
HBsAg (CPM) % suppression (HBsAg; [14]): 49.16% and 49.1558%
HBsAg (CPM) % suppression (HBsAg; [15]): 29.81±27.35%
HBsAg (CPM) % suppression (HBsAg; [16]): 29.81±27.35%
HBsAg IC50 (HBsAg; day 8): (1)10.72 IU/ml
HBsAg IC50 (HBsAg; day 8, listed as pegylated recombinant arginase): 10.72 IU/ml
Suppression of HBeAg secretion (result in words) (HBeAg; [2]): significantly inhibits
HBeAg (CPM) % suppression (HBeAg; [3]): 37.3426%
HBeAg (CPM) % suppression (HBeAg; [4]): 37.34%
HBeAg (CPM) % suppression (HBeAg; [5]): 61.8387%
HBeAg (CPM) % suppression (HBeAg; [6]): 41.8149%
HBeAg (CPM) % suppression (HBeAg; [7]): 51.83±14.16%
HBeAg (CPM) % suppression (HBeAg; [8]): 68.3484%
HBeAg (CPM) % suppression (HBeAg; [9]): 39.5618%
HBeAg (CPM) % suppression (HBeAg; [10]): 53.96±20.36%
HBeAg (CPM) % suppression (HBeAg; [11]): 73.0985%
HBeAg (CPM) % suppression (HBeAg; [12]): 48.3596%
HBeAg (CPM) % suppression (HBeAg; [13]): 60.73±17.49%
HBeAg (CPM) % suppression (HBeAg; [14]): 74.9808%
HBeAg (CPM) % suppression (HBeAg; Arginase 20 IU/ml, batch 2, day 8): 62.4033%
HBeAg (CPM) % suppression (HBeAg; [15]): 68.69±8.89%
HBeAg (CPM) % suppression (HBeAg; [16]): 68.69±8.89%
HBeAg IC50 (HBeAg; batch 1, day 8): 6.69 IU/ml
HBeAg IC50 (HBeAg; batch 2, day 8): 6.05 IU/ml
HBeAg IC50 (HBeAg; two batches average, day 8): 6.37 ± 0.45 IU/ml and 6.37 IU/ml
HBeAg IC50 (HBeAg; two batches average, day 8, listed as pegylated recombinant arginase): 6.37±0.45 IU/ml
% suppression of HBV-DNA in cell culture supernatant ([1]; Arginase 1.25 μg/ml (unit as headed), batch 2, day 8): 15.7769%
HBV-DNA in cell culture supernatant, Original Solution (IOD) ([1]; Arginase 1.25 μg/ml (unit as headed), batch 2, day 8, control 4651.67): 3917.78 IOD
% suppression of HBV-DNA in cell culture supernatant ([1]; Arginase 2.5 μg/ml (unit as headed), batch 1, day 8): 24.9152%
HBV-DNA in cell culture supernatant, Original Solution (IOD) ([1]; Arginase 2.5 μg/ml (unit as headed), batch 1, day 8, control 2375.1): 1783.34 IOD
% suppression of HBV-DNA in cell culture supernatant ([1]; Arginase 2.5 μg/ml (unit as headed), batch 2, day 8): 11.466%
HBV-DNA in cell culture supernatant, Original Solution (IOD) ([1]; Arginase 2.5 μg/ml (unit as headed), batch 2, day 8, control 4651.67): 4118.31 IOD
% suppression of HBV-DNA in cell culture supernatant ([1]; Arginase 5 μg/ml (unit as headed), batch 1, day 8): 11.9877%
HBV-DNA in cell culture supernatant, Original Solution (IOD) ([1]; Arginase 5 μg/ml (unit as headed), batch 1, day 8, control 2375.1): 2090.38 IOD
% suppression of HBV-DNA in cell culture supernatant ([1]; Arginase 5 μg/ml (unit as headed), batch 2, day 8): 43.8243%
HBV-DNA in cell culture supernatant, Original Solution (IOD) ([1]; Arginase 5 μg/ml (unit as headed), batch 2, day 8, control 4651.67): 2613.11 IOD
% suppression of HBV-DNA in cell culture supernatant ([1]; Arginase 10 μg/ml (unit as headed), batch 1, day 8): 29.2409%
HBV-DNA in cell culture supernatant, Original Solution (IOD) ([1]; Arginase 10 μg/ml (unit as headed), batch 1, day 8, control 2375.1): 1680.6 IOD
% suppression of HBV-DNA in cell culture supernatant ([1]; Arginase 10 μg/ml (unit as headed), batch 2, day 8): 38.0549%
HBV-DNA in cell culture supernatant, Original Solution (IOD) ([1]; Arginase 10 μg/ml (unit as headed), batch 2, day 8, control 4651.67): 2881.48 IOD
% suppression of HBV-DNA in cell culture supernatant ([1]; Arginase 20 μg/ml (unit as headed), batch 1, day 8): 30.8113%
HBV-DNA in cell culture supernatant, Original Solution (IOD) ([1]; Arginase 20 μg/ml (unit as headed), batch 1, day 8, control 2375.1): 1643.3 IOD
% suppression of HBV-DNA in cell culture supernatant ([1]; Arginase 20 μg/ml (unit as headed), batch 2, day 8): 47.7577%
HBV-DNA in cell culture supernatant, Original Solution (IOD) ([1]; Arginase 20 μg/ml (unit as headed), batch 2, day 8, control 4651.67): 2430.14 IOD
IC50, HBV-DNA dot blot in supernatant ([1]; batch 1, 8 days of incubation): 16.04 IU/ml
IC50, HBV-DNA dot blot in supernatant ([1]; batch 2, 8 days of incubation): 10.31 IU/ml
IC50, HBV-DNA dot blot in supernatant ([1]; two batches average, 8 days of incubation): 13.18 IU/ml
IC50, HBV-DNA dot blot in supernatant ([1]; two batches average, 8 days of incubation, listed as arginase): 13.18±4.05 IU/ml
IC50, HBV-DNA dot blot in supernatant ([1]; two batches average, 8 days of incubation, listed as pegylated recombinant arginase): 13.18±0.45 IU/ml
TC50 (2.2.15 cells): 40 IU/ml
TC0 (2.2.15 cells; listed as pegylated recombinant arginase): 20±0 IU/ml
